Test results from the supplement of paper PMC10126150.
± gives the standard deviation of the averaged measurements.

Tested on: ATP
Assay: switch fluorescence ratio, 500 uM ATP over buffer (Cy3 cluster intensity, sum of 5 cycles each) (fold (ratio)); higher = stronger signal-on switching upon ATP binding; sequences stand for … in TCGTCGGCAGCGTCAGATGTGTATAAGAGACAGTTTTTTTTTTTTTTTTTTTTTTTTT…TC
Settings: aptamer strand: ATP DNA aptamer (quencher-CACCTGGGGGAGTATTGCGGAGGAAGG + anchor), 100 nM annealed; ATP concentration: 500 uM
Procedure, shortened: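 Imaging in selection buffer was followed by imaging after 15 min with 500 uM ATP at 22 °C, for Cy3-labelled switching-strand clusters annealed to 100 nM quencher-labelled ATP aptamer on a modified Illumina MiSeq flow-cell. Five of these buffer/ATP cycles ran, separated by NaOH stripping and re-annealing. The fluorescence ratio per cluster is summed target-cycle over summed buffer-cycle Cy3 intensity, averaged per switch-domain sequence; clusters outside 100-1000 RFU were removed.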
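Note: ATP exposure 15 min at 22 °C before imaging.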

Point of comparison: GGAACGTTGG, switch fluorescence ratio 0.973 ± 0.045. Against it:
- TTGCCAAATT — within error, 1.12 ± 0.13
- TATTATTTCA — within error, 0.991 ± 0.024
- GATAATAGGT — within error, 0.993 ± 0.016
- ACTAGAGGCA — within error, 1 ± 0.024
- TGGGTTGTGG — within error, 1.01 ± 0.053
- ACATGCAAGC — higher, 1.64 ± 0.12
- GATGATATTG — within error, 0.992 ± 0.012
- GGTCGAGGGT — within error, 1.022 ± 0.0041
- TGGTGGGGCT — within error, 0.994 ± 0.026
- TCATGTGGTA — within error, 0.9915 ± 0.0093
- CAGCATCCTT — within error, 1.02 ± 0.043
- GCCGGATCTT — within error, 1.01 ± 0.02
- GGGGACCTAT — within error, 1.02 ± 0.018
- ATAATTGAGC — within error, 1.04 ± 0.027
- TATAAACCGC — higher, 1.22 ± 0.11
- CGAGTGAATC — within error, 1.01 ± 0.019
- GATTAAATTA — within error, 1.01 ± 0.021
- GCCCATTGTG — higher, 1.2 ± 0.072
- GTTTGCCCAA — within error, 0.987 ± 0.037
- AAAAAGTTAG — within error, 0.998 ± 0.023
- TCGAAATCGG — within error, 1.03 ± 0.021
- AGCCAGATTC — within error, 0.975 ± 0.036
- TTCAGGGAGG — within error, 1 ± 0.033
- AGGTTACATC — higher, 1.018 ± 0.0016
- GGGGTCGGTC — within error, 1 ± 0.023
- GTATGGGGGG — within error, 0.985 ± 0.026
- AGTAAGGCGC — within error, 1.02 ± 0.045
- CTGTCAAGTA — within error, 0.972 ± 0.012
- GGGCTAGTAC — higher, 1.13 ± 0.017
- CTGGAAGGGG — within error, 1.04 ± 0.024
- ATAGTTTTTG — within error, 0.993 ± 0.012
- TTTTCGTATT — within error, 0.988 ± 0.012
- TTAGCTATTA — within error, 0.9858 ± 0.0043
- GTTTAGGGTA — within error, 1.01 ± 0.051
- TAAGTGGGGC — within error, 0.957 ± 0.085
- CGGGTAGTAC — higher, 1.19 ± 0.03
- ACCGACGCGG — higher, 2.55 ± 0.34
- AGCGATAGTA — higher, 1.07 ± 0.019
- ATCTAGAGGA — within error, 0.985 ± 0.023
- AGTTAAAATA — within error, 1 ± 0.021
- ATAAGCGTGG — within error, 0.995 ± 0.082
- AGTCTGTTTC — within error, 0.999 ± 0.024
- ACGTCAAGGT — higher, 1.0871 ± 0.00061
- GTGGGGCTTA — within error, 0.994 ± 0.032
- AGGTGGGAGT — within error, 1.02 ± 0.021
- CTGTTTGTGC — within error, 0.975 ± 0.013
- AGTTAGTAAG — within error, 1.01 ± 0.04
- CTAGAAAGGG — within error, 0.999 ± 0.02
- ACTTAGCATT — higher, 1.14 ± 0.024
- CATTTGTGGA — within error, 1.003 ± 0.0062
- GGTTGAGCTG — within error, 0.945 ± 0.056
- TCCGTGTGGG — within error, 1.04 ± 0.028
- GTTTTTATAT — within error, 1.03 ± 0.015
- TGTGATTTAT — within error, 1.0046 ± 0.00072
- TTTGTGGTTC — within error, 1 ± 0.039
- GACTAAATGC — higher, 1.8 ± 0.3
- CAGCGCTGGA — within error, 0.996 ± 0.033
- CGATTAGGGG — within error, 1 ± 0.012
- CGGGGAAACA — within error, 0.9943 ± 0.0077
- AGGGAGGGTG — within error, 1.02 ± 0.066
- GGGTGGGTCA — within error, 1.01 ± 0.048
- GATTAGGTGT — higher, 1.098 ± 0.0067
- GGCCAGGGGA — within error, 1.04 ± 0.049
- TAGGGGACCG — within error, 0.991 ± 0.017
- AATCGGGACC — within error, 0.9905 ± 0.002
- ATATGGTGCT — within error, 1.004 ± 0.0074
- ACTATTGGGT — within error, 0.988 ± 0.015
- TTCGGGATTT — within error, 1.007 ± 0.0062
- GGTAAGGGTT — within error, 0.9866 ± 0.0081
- ATTCAAAAAT — higher, 1.04 ± 0.016
- GGAAAATTAA — within error, 1 ± 0.033
- AAAATGGAGA — within error, 0.983 ± 0.029
- TACATATGGT — higher, 1.03 ± 0.0018
- TTCAACTTTT — within error, 1.01 ± 0.056
- GGAATCTGGG — within error, 0.983 ± 0.05
- TTAGGTTGGC — within error, 1 ± 0.069
- AAAGTTCGGC — higher, 1.06 ± 0.024
- TGGGTCATTG — the same, 0.973 ± 0.043
- ATGTGGGTGT — within error, 1.02 ± 0.013
- ACGGAGGTGG — within error, 0.992 ± 0.033
- ATCAATTGAT — within error, 1.01 ± 0.052
- GCGGAAAGAA — within error, 0.962 ± 0.02
- CGGAGGTAAG — within error, 0.994 ± 0.011
- CTCACATGGG — higher, 1.07 ± 0.028
- TTTGAGGAGC — higher, 1.035 ± 0.0028
- GCGTTCATGG — higher, 1.04 ± 0.0093
- CCTTTGTATT — within error, 1.04 ± 0.031
- GGGAAAGTTT — within error, 0.996 ± 0.023
- CAGGAGGGGG — within error, 0.992 ± 0.053
- ATGGCCTTAG — within error, 0.9931 ± 0.0094
- TAACTATAAG — within error, 1 ± 0.018
- TTGATAGAAA — within error, 1.01 ± 0.038
- CATAATCCGA — higher, 1.048 ± 0.0029
- CCACTTTGGG — within error, 1 ± 0.069
- AGAGAGGCTA — within error, 1 ± 0.015
- TTGTATATGC — within error, 1.16 ± 0.23
- TCGTGTGGTT — within error, 0.978 ± 0.035
- TTATATTTGT — within error, 0.98 ± 0.02
- ACTACGTACA — higher, 1.68 ± 0.024
- GTTGTCAGTA — within error, 0.9836 ± 0.005
- CGTTGGGTGG — within error, 1.02 ± 0.076
- TACCAACATC — higher, 1.093 ± 0.0039
- GCCAATTAAT — within error, 1.01 ± 0.012
- TTTGTTTAGG — within error, 1.01 ± 0.04
- GATAAGAGCC — within error, 1.008 ± 0.0024
- ATTGTAGTCT — within error, 1.04 ± 0.06
- CATGCTAAGT — within error, 0.997 ± 0.011
- TTTATTCGAA — within error, 0.99821 ± 0.00092
- ACCTTAGGCC — higher, 1.07 ± 0.015
- GATAGCTTAG — within error, 0.9935 ± 0.0071
- TGTTGTGCAC — within error, 1.02 ± 0.023
- TAGGTGCCGT — within error, 1 ± 0.076
- TGATGGGCGT — within error, 0.9801 ± 0.0016
- ATGGGCCTGG — within error, 0.9792 ± 0.0094
- ATTATGTTTA — within error, 1 ± 0.022
- TGTGTTATAC — within error, 1.05 ± 0.043
- CGCGGCAGGA — within error, 1.02 ± 0.019
- ATTCGGGTTA — within error, 0.99 ± 0.013
- TGGTGTCGGG — within error, 0.998 ± 0.013
- TTTCATTTAT — within error, 0.986 ± 0.021
- TTTATTTGAA — within error, 1.01 ± 0.025
- CAGGGGCTGG — higher, 1.05 ± 0.03
- AGGGTCTTTA — within error, 0.999 ± 0.012
- ACCCGAGGGA — within error, 1.05 ± 0.05
- GTGAAAAGGC — within error, 0.9862 ± 0.0032
- TTTGGTTATG — within error, 0.982 ± 0.017
- GAGATGGGGC — within error, 1.09 ± 0.1
- AATGAGAGTT — within error, 0.9909 ± 0.0011
- TGAGGTGGGG — within error, 0.9887 ± 0.0027
- TACGGGCCGG — within error, 0.98 ± 0.011
- TTGAATGTCA — within error, 0.968 ± 0.019
- GCTTAAGGCG — within error, 0.991 ± 0.051
- GGTGGGTGTT — within error, 0.951 ± 0.017
- TTTATCGCAG — within error, 0.994 ± 0.039
- AAGGACGCCT — higher, 1.03 ± 0.0041
- TTGGAGGGGC — within error, 1 ± 0.071
- GGAGGCGGGA — within error, 1.02 ± 0.045
- GGTTGCCATA — within error, 0.944 ± 0.025
- CGTGAAATGT — within error, 0.9863 ± 0.0075
- TTTAGACCAG — within error, 1.01 ± 0.059
- GGGGTATGAC — within error, 1.02 ± 0.015
- GAAGGGAGCG — within error, 0.984 ± 0.045
- TCCGGCGTAT — higher, 1.131 ± 0.0055
- CGTCCTGGGT — within error, 0.995 ± 0.011
- TGAGTTGGGG — within error, 0.967 ± 0.016
- TTTAGGGCGC — within error, 1.05 ± 0.044
- CAGGCGTGTG — within error, 0.995 ± 0.011
- GGTATTTTTT — within error, 0.997 ± 0.025
- CACGCGGGGG — within error, 1.03 ± 0.015
- GAACGGGAAT — higher, 1.022 ± 0.00076
- CGGGTAACGG — higher, 1.035 ± 0.0014
- TGGGGTCCGG — within error, 0.97 ± 0.079
- GGGATTGGGA — within error, 0.99 ± 0.045
- TAACGGAAAA — within error, 1 ± 0.053
- CAGGGGGAGG — within error, 1.03 ± 0.048
- ATTTTGATGT — within error, 0.995 ± 0.051
- GCTCTAAGGG — within error, 1.01 ± 0.028
- AGGGAGTAGG — higher, 1.12 ± 0.029
- TTGGGACTTA — within error, 1.01 ± 0.03
- CTTGAATTTT — within error, 0.988 ± 0.049
- GGTTCGGATC — within error, 0.99316 ± 0.00058
- GTTTTAAAGG — within error, 0.984 ± 0.031
- ATTTTTAAAC — within error, 0.992 ± 0.066
- CATATTTCGG — within error, 0.995 ± 0.03
- ATCTGGGGGG — within error, 1 ± 0.064
- CTGCTAGGGG — within error, 1.04 ± 0.034
- TTAAATGTGT — within error, 1.02 ± 0.018
- TTAATAAGCT — within error, 0.978 ± 0.022
- GAAGGGTTAC — within error, 1.15 ± 0.15
- CATTGACATT — higher, 1.06 ± 0.026
- TAAAAACCTT — higher, 1.43 ± 0.35
- ATCGTGGGTT — within error, 0.97919 ± 0.00077
- ACGGATTGTG — within error, 0.971 ± 0.0099
- AGAATGGTGT — within error, 1.02 ± 0.038
- TTTTAGGGCA — within error, 1 ± 0.018
- TTCATATTCA — within error, 1.01 ± 0.023
- AGAAAATTCG — within error, 0.981 ± 0.024
- ATGGTCTGGG — within error, 0.971 ± 0.011
- TTAAGGCCGG — within error, 1.03 ± 0.025
- GTTGAGGAGG — within error, 0.9891 ± 0.0086
- GTCTGTGGGT — within error, 0.972 ± 0.06
- GAAGGAGCAG — within error, 0.944 ± 0.029
- TAGGGGTTAT — within error, 0.995 ± 0.015
- CATTAGCAGG — higher, 1.08 ± 0.032
- TTTTTTGCGC — within error, 1.19 ± 0.29
- CTTTATGTCG — within error, 1.02 ± 0.048
- AAAAGGTTAC — higher, 1.06 ± 0.033
- GCATGGAAAT — within error, 0.985 ± 0.045
- CAGGGCGTTC — within error, 0.9856 ± 0.0044
- CTGGGCAGGT — within error, 1 ± 0.016
- AAAAATTAAT — within error, 0.979 ± 0.023
- GGGAGTAGCA — within error, 1.02 ± 0.026
- GTTGTGTATT — within error, 0.998 ± 0.022
- GGGTGGGGG — within error, 1.01 ± 0.033
- TATGGCGCAT — within error, 0.993 ± 0.043
- GGAAGGGGTA — within error, 1.01 ± 0.048
- GTAGAAACGC — within error, 0.998 ± 0.01
- CCGTGGGGAT — within error, 1.24 ± 0.26
- TTCTGTTCGC — within error, 1.03 ± 0.025
